Experimental findings from article doi:10.1101/2024.02.03.578754 (bioRxiv, 2024) are described below.

Where no end group is shown, it is not given here.

For this test, the target named is Arabidopsis thaliana O-acetylserine sulfhydrylase (OASS) (Arabidopsis thaliana, UniProt P47998 3-322). The test can be described thus: fluorescence polarisation.
Arabidopsis thaliana O-acetylserine sulfhydrylase (OASS), sequence (P47998 3-322): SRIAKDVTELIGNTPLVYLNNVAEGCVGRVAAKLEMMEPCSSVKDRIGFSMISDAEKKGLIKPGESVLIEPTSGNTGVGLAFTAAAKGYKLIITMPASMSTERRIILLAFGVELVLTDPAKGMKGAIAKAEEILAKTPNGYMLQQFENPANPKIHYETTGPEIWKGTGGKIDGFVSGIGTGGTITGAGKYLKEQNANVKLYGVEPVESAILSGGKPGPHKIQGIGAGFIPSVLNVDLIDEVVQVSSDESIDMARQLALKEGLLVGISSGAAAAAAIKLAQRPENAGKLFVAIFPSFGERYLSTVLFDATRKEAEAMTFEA

Take YLTEWSDYVI (also: FITC conjugate, position not given here) [FITC-labeled SAT-derived peptide YLTEWSDYVI (FITC-SATp)]: the binding result was “binds”.
